The text below walks through data of the nanobody polyreactivity screen of Harvey et al. (2022).

A short description of this series: yeast display, Sf9 membrane polyspecificity reagent, FACS + sequencing; frameworks hold sequencing errors. The method in brief:
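A synthetic nanobody library was expressed on Saccharomyces cerevisiae BJ5465 by galactose induction for 36–48 hours. The library was stained for 1 hour at 4 °C with 10% biotinylated, detergent-solubilized Sf9 membrane reagent and enriched with streptavidin microbeads before FACS. Low and high (top ~1%) gates were set on anti-HA fluorescence for expression and streptavidin fluorescence for reagent binding, and each polyreactivity label reflects the gate of origin.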
Turning to “QVQLVESGGGLVQAGGSLRLSCAASGLTFVKNAMGWYRQAPGKDRELVATISSGGSTNYADSVKGRFTISRDNAKNTVYLQMNSLKPEDTAVYYCNKDITGVLLWIWWDRYDYWGQGTQVTVSS”, the “polyreactivity (PSR sort gate)” value was “high polyreactivity”.
Under “QVQLVESGGGLVQAGGSLRLSCAASGLTFVPNAMGWYRQAPGKERELVAAISNNGGRTYYADSVKGRFTISRDNAKNTVYLQMNSLKPEDTAVYYCAKYLSPGERHSYDYWGQGTQVTVSS” stands “high polyreactivity”; under “QVQLVESGGGLVQAGGSLRLSCAASGLTFVQYAMGWYRQAPGKERELVAAISRNGGSTYYADSVKGRFTISRDNAKNTVYLQMNSLKPEDTAVYYCATRISYPWWAYDYWGQGTQVTVSS”, “high polyreactivity”.
Under “QVQLVESGGGLVQAGGSLRLSCAASGLTFVRYAMGWYRQAPGKERELVAAISARGGSTYYADSVKGRFTISRDNAKNTVYLQMNSLKPEDTAVYYCNTVRVHGFPIDRIYDYWGQGTQVTVSS” stands “high polyreactivity”; under “QVQLVESGGGLVQAGGSLRLSCAASGLTFVSYAMGWSRQAPGQEREFVAAINRSGGSPYYADSVKGRFTISRDNAKTTVYLQMNSLKPEDTALYYCAARRNLAYYHSGYWGQGTQVTVSS”, “high polyreactivity”.
Under “QVQLVESGGGLVQAGGSLRLSCAASGLTFVWYGMGRYRQAPGKERELVAAITRGGSTYYADSVKGRFTISRDNAKNTVYLQMNSLKPEDTAVYYCAARRWERRVRPGYYPYDYWGQGTQVTVSS” stands “high polyreactivity”; under “QVQLVESGGGLVQAGGSLRLSCAASGLTFVYNTMGWYRQAPGKERELVAAINWSGGRTYYADSVKGRFTISRDNAKNTVYLQMNSLKPEDTAVYYCAALYVPNTPTYKYDYWGQGTQVTVSS”, “low polyreactivity”.
On to “QVQLVESGGGLVQAGGSLRLSCAASGLTFVYYAMGWYRQAPGKERELVAAISESGTSTYYADSVKGRFTISRDNAKNTVYLQMNSLKPEDTAVYYCAAKDSYYEMDYWGQGTQVTVSS”, for which the “polyreactivity (PSR sort gate)” value is “high polyreactivity”.
For the sequence “QVQLVESGGGLVQAGGSLRLSCAASGLTFVYYAMGWYRQAPGNERELVAAISRRGGSTNYADSVKGRFTISRDNAKNTVYLQMNSLKPEDTAVYYCAATSRYFQPPGYGGGRIGYGYWGQGTQVTVSS”, the “polyreactivity (PSR sort gate)” value is recorded as “high polyreactivity”.
Regarding “QVQLVESGGGLVQAGGSLRLSCAASGLTFWDNAMGWYRQAPGKERELVAAIRGGGSTYYADSVKGRFTISRDNAKNTVYLQMNSLKPEDTAVYYCNAESYQDTLFGADNDYDYWGQGTQVTVSS”, the “polyreactivity (PSR sort gate)” value is given as “low polyreactivity”.
For “QVQLVESGGGLVQAGGSLRLSCAASGLTFWSYAMGWYRQAPGKERELVAAISKRGGSTYYADSVKGRFTISRDNAKNTVYLQMNSLKPEDTAVYYCAARTFRALNKYYYWGQGTQVTVSS” the value was “high polyreactivity”; for “QVQLVESGGGLVQAGGSLRLSCAASGLTFWYYDMGWYRQAPGKERELVAAISGTGSTYADSVKGRFTISRDNAKNTVYLQMNSLKPEDTAVYYCAADYSGTPYAVYWQWGDYDYWGQGTQVTVSS”, “low polyreactivity”.
Consider “QVQLVESGGGLVQAGGSLRLSCAASGLTFYHYDMGWYRQAPGIETELVAAITNGGSTYYADSVKGRFTISRDNAKNTVYLQMNSLKPEDTAVYYCAADGSGYYDWYYYWGQVTQVTVSS”, for which the “polyreactivity (PSR sort gate)” value is listed as “low polyreactivity”.
Under “QVQLVESGGGLVQAGGSLRLSCAASGLTFYKNAMGWYRQAPGKEKELVAAISDSGGSTYYADSVKGRFTISRDNAKNTVYLQMNSLKPEDTAVCYCNARRRVYYKGFDYWGQGTQVTVSS” stands “high polyreactivity”.
Turning to “QVQLVESGGGLVQAGGSLRLSCAASGLTFYLYAMGWYRQAPGKERELVAAITSGGSTYYADSVKGRFTISRDNAKNTVYLQMNSLKPEDTAVYYCNKLTYGRVWDHHYDYWGQVTQVTVSS”, the “polyreactivity (PSR sort gate)” value is listed as “low polyreactivity”.
Turning to “QVQLVESGGGLVQAGGSLRLSCAASGLTFYPYAMGWYRQAPGKERELVAAINWSGTTTYYADSVKGRFTISRDNAKNTVYLQMNSLKPEDTAVYYCAAHYTTFIPSPDGDYLGQGTQVTVSS”, the “polyreactivity (PSR sort gate)” value was “low polyreactivity”.
Regarding “QVQLVESGGGLVQAGGSLRLSCAASGLTFYRNAMGWYRQAPGKEREFVAAITSTDGSTYYADSVKGRFTISRDNAKNTVYLQMNSLKPEDTAVYYCAARRRRWSGYWGQGTQVTVSS”, the “polyreactivity (PSR sort gate)” value is “high polyreactivity”.
As to “QVQLVESGGGLVQAGGSLRLSCAASGLTFYRYAMGWYRQAPGKERELVAAITSGTRTYYADSVKGRFTISRDNAKNTVYLQMNSLKPEDTAVYYCAFRQGWYHFRYDYWGQGTQVTVSS”, the “polyreactivity (PSR sort gate)” value is on record as “high polyreactivity”.
As for “QVQLVESGGGLVQAGGSLRLSCAASGLTFYSNAMGWYRQAPGKERELVARISTGGSTYADSVKGRFTISRDNAKNTVYLQMNSLKPVDTAVYYCAVDGWDDTYFRQDMDYWGQGTQVTVSS”, the “polyreactivity (PSR sort gate)” value was “low polyreactivity”.
For “QVQLVESGGGLVQAGGSLRLSCAASGLTFYTNAMGSYRQAPGKERELLAAITSSGGRTYYADSVKGRFTISRDNAKYTVYLQMNSLKPEDTAVYYCAADARRPRIPEMYYWGLGTQVTVSS” the value was “high polyreactivity”; for “QVQLVESGGGLVQAGGSLRLSCAASGLTFYYNAMGWYRQAPGKERELVAAISFSGGRTYYADSVKGRFTISRDNAKNTVYLQMNSLKPEDTAVYYCAADWVRNWYTSGSWGQGTQVTVSS”, “high polyreactivity”; for “QVQLVESGGGLVQAGGSLRLSCAASGLTFYYNAMGWYRQAPGKERELVAAISRYGGSTYYADSVKGRFRISRDNAKNTDYLQMNSLKPEDTAVYYCAVAYVYTRKGRVQPVKYDYWGQGTQVTVSS”, “high polyreactivity”.
Under “QVQLVESGGGLVQAGGSLRLSCAASGLTFYYNAMGWYRQAPGKERELVAAITWSTDSTYYADSVKGRFTISRDNAKNTVYLQMNSLKPEDTAVYYCAAAVDAFTNKQYYYWGQGTQVTVSS” stands “low polyreactivity”; under “QVQLVESGGGLVQAGGSLRLSCAASGLTFYYYAMGWYRQAPGKERELVAGISGSDGSTYYADSVKGRFTISRDNAKNTVYLQMNSLKPEDTAVYYCAAEYYYPWPLYYITDGIYDMYYWGQGTQVTVSS”, “low polyreactivity”.
As for “QVQLVESGGGLVQAGGSLRLSCAASGLTFYYYAMGWYRQAPGKERELVATISGSGGNTYYADSVKGRFTISRDNAKNTVFLQMNSLKPEDTAVYYCNARYRWWLYYSRDRVYYWGQGTQVTVSS”, the “polyreactivity (PSR sort gate)” value is given as “high polyreactivity”.
For “QVQLVESGGGLVQAGGSLRLSCAASGLTFYYYVMGWYRQAPGKERELVAAISKSGGRTYYADSVKGRFTISRDNAKNTVYLQMNSLKPEDSAVYYCAAMYTPNYTAYDSWGQGTQVTVSS” the value was “high polyreactivity”; for “QVQLVESGGGLVQAGGSLRLSCAASGLTFYYYVMGWYRQAPGKERELVAAISKSGGRTYYADSVKGRFTISRDNAKNTVYLQMNSLKPEDTAVYYCAALYTPNYTAYDSWGQGTQVTVSS”, “high polyreactivity”.
Under “QVQLVESGGGLVQAGGSLRLSCAASGLTIFVYAMGWSRQAPGKERELVAAISDSGGSTYYADSVKGRFTISRDNAKNTVYLQMNSLKPEDTAVYYCAADYRGIYSGIWGDYWGQGTQVTVSS” stands “low polyreactivity”; under “QVQLVESGGGLVQAGGSLRLSCAASGLTIGYYAMGWYRQAPGKERELVAAISGSGGATYYADSVKGRFTISRDNAKNTVYLQMNSLKPEDTAVYYCAAKWGRTGRFDYWGQGTQVTVSS”, “low polyreactivity”; under “QVQLVESGGGLVQAGGSLRLSCAASGLTIQRNDMGWYRQAPGKEREFVATITSNAGSTYYADSVKGRFTISRDNAKNTVYLQMNSLKPEDTAVYYCARERWWGGSDYWGQGTQVTVSS”, “high polyreactivity”.
In the case of “QVQLVESGGGLVQAGGSLRLSCAASGLTIRSYGMGWYRQAPGKERELVASITWSGGSTYYADSVKGRFTISRDNAKNTVYLQMNSLKPEDTAVYYCAASFDFQGYHYGYWGQGTQVTVSS”, the “polyreactivity (PSR sort gate)” value is “high polyreactivity”.
Turning to “QVQLVESGGGLVQAGGSLRLSCAASGLTISYYAMGWYRQAPGKERELVAAISTDSSTNYADSVKGRFTISRDNAKNTVYLQMISLKPEDTAVYYCAAVVVYGPIHGYWGQGTQVTVSS”, the “polyreactivity (PSR sort gate)” value is recorded as “low polyreactivity”.
Under “QVQLVESGGGLVQAGGSLRLSCAASGLTIWRYAMGWYRQAPGKEREFVATISQYGGRTYYAASVKGRFTITRDNAKKTVNLQMNSLKPEDTAVYYCAADDWRWGYDYWGPGTQVTVSS” stands “high polyreactivity”; under “QVQLVESGGGLVQAGGSLRLSCAASGLTLAPNAMGWYRQSPGKERELVAAITRSGGDTYYADSVKGRFTISRDTAKNTVYLQMNSLKPEDTAVYYCAADYWFRYGTYTGLTSYYYWGQGTQVTVSS”, “high polyreactivity”.
Turning to “QVQLVESGGGLVQAGGSLRLSCAASGLTLAYAMGWYRQPPGKEREFVAAISSSGGSTYYADSVKGRFTISRDNAKNTVYLQMNSLKPEDTAVYYCAARTNPGRYYYRFSGGSWGQGTQVTVSS”, the “polyreactivity (PSR sort gate)” value is given as “high polyreactivity”.
For “QVQLVESGGGLVQAGGSLRLSCAASGLTLDYYARGWYRQAPGKDRELVAVIRGRSGSTYYADSVKGRFTISRDNAKNTVYLQMNSLKPEDTAVYYCARVTTYGDYYWGQGTQVTVSS” the value was “high polyreactivity”.
With “QVQLVESGGGLVQAGGSLRLSCAASGLTLGSYAMGWYRLAPGKERELVAAISRRSGRTYYADSVKGRFTISRDNAKNTVYVQMNSLKPEDTAVYYCNRGYTAQVYTEFDYWGHGTQVTVSS”, the “polyreactivity (PSR sort gate)” value is reported as “low polyreactivity”.
For “QVQLVESGGGLVQAGGSLRLSCAASGLTLKRYAMGWYRQAPGKERELDAAISKSGGSTYYADSVKGRFTSSRDNAKNTVYLQMNSLKPEDTPVYYCAADSYNLWDDYWGQGTQVTVSS”, the “polyreactivity (PSR sort gate)” value was “low polyreactivity”.
Under “QVQLVESGGGLVQAGGSLRLSCAASGLTLPWYAMGWYRQAPGKERELVAAITWDGTRTYYADSVKGRFTISRDNAKNTVYLQMNSLKPEDTAVFYCNARRVRGTFYRSGVVGYSYWGHGTQVTVSS” stands “high polyreactivity”.
Take “QVQLVESGGGLVQAGGSLRLSCAASGLTLQPYAMGWYRQAPGKERELVAAITSGGSTYYADSVKGRFTISRDNAKNTVYLQMNSLKPEDTAVYYCAAVGRHYYVKFDYWGQGTQVTVSS”: the “polyreactivity (PSR sort gate)” value is on record as “low polyreactivity”.
